Reference: patent publication US20260242478A1 (published 2026)

Key:
PSMA Fab (006 PSMA Fab) [1] = molecular target: T1, PSMA Fab (006 PSMA Fab); assay: clonal phage ELISA; biotinylated PSMA Fab on neutravidin plate, blocking buffer alone; anti-M13 HRP detection;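 further: crude clonal phage supernatants added without washing to wells pretreated with blocking buffer with or without PSMA antigen, short incubation, then washed before detecting bound phage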
T1 construct: also called Anti-PSMA Fab; anti-PSMA Fab
Method: (§1) Clonal phage were harvested as crude supernatants and screened via standard ELISAs. […] Prior to the addition of clonal phage. wells were incubated with blocking buffer and PSMA antigen or blocking buffer alone. Without washing or aspirating, clonal phage supernatants were then added to the wells and incubated for a short time. Wells were then washed followed by detection of bound phage using a horse radish conjugated anti-M13 antibody.

PSMA Fab (006 PSMA Fab) [2] = molecular target: T1, PSMA Fab (006 PSMA Fab); assay: clonal phage ELISA; biotinylated PSMA Fab on neutravidin plate, wells pre-incubated with PSMA antigen (competitor); anti-M13 HRP detection
Method: as §1

PSMA Fab [3] = molecular target: T2, PSMA Fab; assay: clonal phage ELISA on captured PSMA Fab pre-incubated with PSMA antigen (competitor)
T2 construct: Biotinylated and captured on neutravidin plates in the phage ELISA; also called Anti-PSMA Fab; 006 PSMA Fab
Method: as §1

PSMA Fab [4] = molecular target: T2, PSMA Fab; assay: clonal phage ELISA on biotinylated PSMA Fab captured on neutravidin, anti-M13 HRP detection;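 further: crude clonal phage supernatants added to wells pretreated with PSMA antigen in blocking buffer or with blocking buffer only, then briefly incubated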
Method: as §1

PSMA Fab (006 PSMA Fab) [5] = molecular target: T3, PSMA Fab (006 PSMA Fab); assay: phage ELISA; biotinylated PSMA Fab on neutravidin plate, clonal phage supernatant, anti-M13 HRP detection; blocking buffer alone
T3 construct: also called Anti-PSMA Fab; anti-PSMA Fab
Method: as §1

PSMA Fab (006 PSMA Fab) [6] = molecular target: T3, PSMA Fab (006 PSMA Fab); assay: phage ELISA; biotinylated PSMA Fab on neutravidin plate pre-incubated with PSMA antigen as competitor, clonal phage supernatant, anti-M13 HRP detection
Method: as §1

EEKMCTPQWMCSGF [Phage-3020]
Phage binding ELISA signal, Anti-PSMA Fab (PSMA Fab (006 PSMA Fab) [1]): 2.2
Phage binding ELISA signal, Anti-PSMA Fab in presence of PSMA antigen (PSMA Fab (006 PSMA Fab) [2]): 0.0688

GGLRCEPMWMCHGF [Phage-3021]
Phage binding ELISA signal, Anti-PSMA Fab (PSMA Fab (006 PSMA Fab) [1]): 2.2
Phage binding ELISA signal, Anti-PSMA Fab in presence of PSMA antigen (PSMA Fab (006 PSMA Fab) [2]): 0.122

DHLMCKPSWMCKGF [Phage-3022]
Phage binding ELISA signal, Anti-PSMA Fab (PSMA Fab (006 PSMA Fab) [1]): 2.19
Phage binding ELISA signal, Anti-PSMA Fab in presence of PSMA antigen (PSMA Fab (006 PSMA Fab) [2]): 0.0924

TVPKCVPNWMCDWL [Phage-3023]
Phage binding ELISA signal, Anti-PSMA Fab (PSMA Fab (006 PSMA Fab) [1]): 2.19
Phage binding ELISA signal, Anti-PSMA Fab in presence of PSMA antigen (PSMA Fab (006 PSMA Fab) [2]): 0.0864

IERLCMPMWMCTGL [Phage-3024]
Phage binding ELISA signal, Anti-PSMA Fab (PSMA Fab (006 PSMA Fab) [1]): 2.19
Phage binding ELISA signal, Anti-PSMA Fab in presence of PSMA antigen (PSMA Fab (006 PSMA Fab) [2]): 0.0679

PLVVCKPAWMCIGF [Phage-3025]
Phage binding ELISA signal, Anti-PSMA Fab (PSMA Fab (006 PSMA Fab) [1]): 2.19
Phage binding ELISA signal, Anti-PSMA Fab in presence of PSMA antigen (PSMA Fab (006 PSMA Fab) [2]): 0.0979

VDVLCVPSWMCSWL [Phage-3026]
Phage binding ELISA signal, Anti-PSMA Fab (PSMA Fab (006 PSMA Fab) [1]): 2.19
Phage binding ELISA signal, Anti-PSMA Fab in presence of PSMA antigen (PSMA Fab (006 PSMA Fab) [2]): 0.0683

VLPVCKPLWMCKGL [Phage-3027]
Phage binding ELISA signal, Anti-PSMA Fab (PSMA Fab (006 PSMA Fab) [1]): 2.19
Phage binding ELISA signal, Anti-PSMA Fab in presence of PSMA antigen (PSMA Fab (006 PSMA Fab) [2]): 0.234

DMRRCEPIWMCVGF [Phage-3028]
Phage binding ELISA signal, Anti-PSMA Fab (PSMA Fab (006 PSMA Fab) [1]): 2.19
Phage binding ELISA signal, Anti-PSMA Fab in presence of PSMA antigen (PSMA Fab (006 PSMA Fab) [2]): 0.0954

DSIMCRPAWMCAGF [Phage-3029]
Phage binding ELISA signal, Anti-PSMA Fab (PSMA Fab (006 PSMA Fab) [1]): 2.19
Phage binding ELISA signal, Anti-PSMA Fab in presence of PSMA antigen (PSMA Fab (006 PSMA Fab) [2]): 0.0945

HHQLCKPLWMCEGF [Phage-3030]
Phage binding ELISA signal, Anti-PSMA Fab (PSMA Fab (006 PSMA Fab) [1]): 2.19
Phage binding ELISA signal, Anti-PSMA Fab in presence of PSMA antigen (PSMA Fab (006 PSMA Fab) [2]): 0.13

WEILCKPEWMCSGF [Phage-3031]
Phage binding ELISA signal, Anti-PSMA Fab (PSMA Fab (006 PSMA Fab) [1]): 2.19
Phage binding ELISA signal, Anti-PSMA Fab in presence of PSMA antigen (PSMA Fab (006 PSMA Fab) [2]): 0.105

EGVVCIPEWMCKGF [Phage-3032]
Phage binding ELISA signal, Anti-PSMA Fab with PSMA antigen (PSMA Fab [3]): 0.0637
Phage binding ELISA signal, Anti-PSMA Fab (PSMA Fab [4]): 2.18

B1: Phage-3033 (peptide)
peptide: ELLMCRPAWMCDGF
notes: Peptide-180 library clone, tested as clonal phage supernatant (pIII display)
Phage binding ELISA signal, Anti-PSMA Fab with PSMA antigen (PSMA Fab [3]): 0.087
Phage binding ELISA signal, Anti-PSMA Fab (PSMA Fab [4]): 2.18

B2: Phage-3034 (peptide)
peptide: YAHICKPSWMCDGF
notes: as for B1
Phage binding ELISA signal, Anti-PSMA Fab with PSMA antigen (PSMA Fab [3]): 0.108
Phage binding ELISA signal, Anti-PSMA Fab (PSMA Fab [4]): 2.18

B3: Phage-3035 (peptide)
peptide: LMPLCVPVWMCSGF
notes: as for B1
Phage binding ELISA signal, Anti-PSMA Fab with PSMA antigen (PSMA Fab [3]): 0.106
Phage binding ELISA signal, Anti-PSMA Fab (PSMA Fab [4]): 2.18

B4: Phage-3036 (peptide)
peptide: IIPACVPPWMCSGF
notes: as for B1
Phage binding ELISA signal, Anti-PSMA Fab with PSMA antigen (PSMA Fab [3]): 0.212
Phage binding ELISA signal, Anti-PSMA Fab (PSMA Fab [4]): 2.18

B5: Phage-3037 (peptide)
peptide: PAVRCEPSWMCQGF
notes: as for B1
Phage binding ELISA signal, Anti-PSMA Fab with PSMA antigen (PSMA Fab [3]): 0.161
Phage binding ELISA signal, Anti-PSMA Fab (PSMA Fab [4]): 2.18

B6: Phage-3038 (peptide)
peptide: VEPQCRPAWMCYGF
notes: as for B1
Phage binding ELISA signal, Anti-PSMA Fab with PSMA antigen (PSMA Fab [3]): 0.0668
Phage binding ELISA signal, Anti-PSMA Fab (PSMA Fab [4]): 2.18

B7: Phage-3039 (peptide)
peptide: VHNWCVPSWMCLGL
notes: as for B1
Phage binding ELISA signal, Anti-PSMA Fab with PSMA antigen (PSMA Fab [3]): 0.099
Phage binding ELISA signal, Anti-PSMA Fab (PSMA Fab [4]): 2.18

B8: Phage-3040 (peptide)
peptide: DYPLCRPEWMCMGF
notes: as for B1
Phage binding ELISA signal, Anti-PSMA Fab with PSMA antigen (PSMA Fab [3]): 0.0813
Phage binding ELISA signal, Anti-PSMA Fab (PSMA Fab [4]): 2.18

B9: Phage-3041 (peptide)
peptide: EHLRCVPDWMCVGF
notes: as for B1
Phage binding ELISA signal, Anti-PSMA Fab with PSMA antigen (PSMA Fab [3]): 0.0886
Phage binding ELISA signal, Anti-PSMA Fab (PSMA Fab [4]): 2.17

B10: Phage-3042 (peptide)
peptide: YTMVCRPAWMCQGF
notes: as for B1
Phage binding ELISA signal, Anti-PSMA Fab with PSMA antigen (PSMA Fab [3]): 0.0964
Phage binding ELISA signal, Anti-PSMA Fab (PSMA Fab [4]): 2.17

B11: Phage-3043 (peptide)
peptide: PTVYCKPEWMCTGF
notes: as for B1
Phage binding ELISA signal, Anti-PSMA Fab with PSMA antigen (PSMA Fab [3]): 0.0869
Phage binding ELISA signal, Anti-PSMA Fab (PSMA Fab [4]): 2.17

B12: Phage-3044 (peptide)
peptide: SLAVCKPSWMCAGF
notes: as for B1
Phage binding ELISA signal, Anti-PSMA Fab with PSMA antigen (PSMA Fab [3]): 0.0813
Phage binding ELISA signal, Anti-PSMA Fab (PSMA Fab [4]): 2.17

B13: Phage-3045 (peptide)
peptide: VIGWCVPQWMCSGF
notes: as for B1
Phage binding ELISA signal, Anti-PSMA Fab with PSMA antigen (PSMA Fab [3]): 0.113
Phage binding ELISA signal, Anti-PSMA Fab (PSMA Fab [4]): 2.17

B14: Phage-3046 (peptide)
peptide: VDKVCRPMWMCAGF
notes: Peptide-180 library clone, tested as clonal phage supernatant (peptide fused to pIII of the bacteriophage)
Phage binding ELISA signal, Anti-PSMA Fab (PSMA Fab (006 PSMA Fab) [5]): 2.17
Phage binding ELISA signal, Anti-PSMA Fab in the presence of PSMA antigen (PSMA Fab (006 PSMA Fab) [6]): 0.126

B15: Phage-3047 (peptide)
peptide: VGNMCVPEWMCVGF
notes: as for B14
Phage binding ELISA signal, Anti-PSMA Fab (PSMA Fab (006 PSMA Fab) [5]): 2.17
Phage binding ELISA signal, Anti-PSMA Fab in the presence of PSMA antigen (PSMA Fab (006 PSMA Fab) [6]): 0.0878

B16: Phage-3048 (peptide)
peptide: PGHVCRPAWMCEGF
notes: as for B14
Phage binding ELISA signal, Anti-PSMA Fab (PSMA Fab (006 PSMA Fab) [5]): 2.17
Phage binding ELISA signal, Anti-PSMA Fab in the presence of PSMA antigen (PSMA Fab (006 PSMA Fab) [6]): 0.106

B17: Phage-3049 (peptide)
peptide: VNVKCTPPWMCFGF
notes: as for B14
Phage binding ELISA signal, Anti-PSMA Fab (PSMA Fab (006 PSMA Fab) [5]): 2.16
Phage binding ELISA signal, Anti-PSMA Fab in the presence of PSMA antigen (PSMA Fab (006 PSMA Fab) [6]): 0.0865

B18: Phage-3050 (peptide)
peptide: ELYKCVPSWMCYGF
notes: as for B14
Phage binding ELISA signal, Anti-PSMA Fab (PSMA Fab (006 PSMA Fab) [5]): 2.16
Phage binding ELISA signal, Anti-PSMA Fab in the presence of PSMA antigen (PSMA Fab (006 PSMA Fab) [6]): 0.0696

B19: Phage-3051 (peptide)
peptide: PGQVCIPEWMCTGF
notes: as for B14
Phage binding ELISA signal, Anti-PSMA Fab (PSMA Fab (006 PSMA Fab) [5]): 2.16
Phage binding ELISA signal, Anti-PSMA Fab in the presence of PSMA antigen (PSMA Fab (006 PSMA Fab) [6]): 0.0874

B20: Phage-3052 (peptide)
peptide: DMRLCRPVWMCEGF
notes: as for B14
Phage binding ELISA signal, Anti-PSMA Fab (PSMA Fab (006 PSMA Fab) [5]): 2.16
Phage binding ELISA signal, Anti-PSMA Fab in the presence of PSMA antigen (PSMA Fab (006 PSMA Fab) [6]): 0.13

B21: Phage-3053 (peptide)
peptide: VAPSCVPLWMCVGM
notes: as for B14
Phage binding ELISA signal, Anti-PSMA Fab (PSMA Fab (006 PSMA Fab) [5]): 2.16
Phage binding ELISA signal, Anti-PSMA Fab in the presence of PSMA antigen (PSMA Fab (006 PSMA Fab) [6]): 0.68

B22: Phage-3054 (peptide)
peptide: DWIRCLPAWMCTGF
notes: as for B14
Phage binding ELISA signal, Anti-PSMA Fab (PSMA Fab (006 PSMA Fab) [5]): 2.16
Phage binding ELISA signal, Anti-PSMA Fab in the presence of PSMA antigen (PSMA Fab (006 PSMA Fab) [6]): 0.0848

B23: Phage-3055 (peptide)
peptide: PVELCRPAWMCWGF
notes: as for B14
Phage binding ELISA signal, Anti-PSMA Fab (PSMA Fab (006 PSMA Fab) [5]): 2.16
Phage binding ELISA signal, Anti-PSMA Fab in the presence of PSMA antigen (PSMA Fab (006 PSMA Fab) [6]): 0.103
